{
  "source": "paper PMC7173060",
  "about": "(Journal of Molecular Biology, 2004)",
  "proteins": {"B1": {"name": "full-length rabies virus phosphoprotein (P), C-terminal His-tagged (natural protein)", "chain": "MSKIFVNPSAIRAGLADLEMAEETVDLINRNIEDNQAHLQGEPIEVDNLPEDMKRLHLDDEKSSNLGEMVRVGEGKYREDFQMDEGEDPNLLFQSYLDNVGVQIVRQMRSGERFLKIWSQTVEEIVSYVTVNFPNPPRRSSEDKSTQTTGRELKKETTSAFSQRESQPSKARMVAQVAPGPPALEWSATNEEDDLSVEAEIAHQIAESFSKKYKFPSRSSGIFLYNFEQLKMNLDDIVKEAKNVPGVTRLAHDGSKIPLRCVLGWVALANSKKFQLLVEADKLSKIMQDDLNRYTSC"}},
  "target": "the molecule itself",
  "assay": "cross-linking",
  "data": [
    {"protein": "B1", "values": [
      {"measurement": "binding result", "value": "binds"}
    ]}
  ]
}
